# Assay results: patent US20210155689A1 (SHANGHAI PHARMAEXPLORER, published 2021)
# Positions count from the first letter of the chain named. Primed or numbered codes have the meaning given here. No end group written: not given here. Biotin′ = biotin label at the C-terminus
# B1: 556F6B8 (LAG-3 mouse-human chimeric antibody) (antibody, V domains shown)
# VH: RVQLKQSGPGLVQPSQSLSITCTVSGFSLIKYGVHWVRQSPGEGLEWLGVIWRGGITDYNAAFMSRLSITKDNSKSQVFFKMNSLQADDTAIYYCAKWDGPLAMDYWGQGTSVTVSS
# VL: DIVMTQSHKFLSTSVGDRVSITCKASQDVGTTVAWYQQKPGQSPKLLIYWASTRHTGVPDRFTGSGSGTDFTLTISNVQSEDLADYFCQQYSSYPYTFGGGTKLEIK
# notes: also called 556F8B8
# B2: 105F1E10 (LAG-3 mouse-human chimeric antibody) (antibody, V domains shown)
# VH: EVQLQQSGPELVKPGASVKMSCRASGYTFTDFKMHWMKQSHGKSLEWIGYIAPNNGGTAYNQKFRGKATLTVNESSNTAYMELRSLTSEDSAVYYCVDWDDVDYWGQGTTLTVSS
# VL: DIKMTQSPSSMYASLGERVTITCKASQDINSYLSWFQQKSGKSPKTLIYRANRLVDGVPSRFSGSGSGQDYSLTISSLEYEDMGIYYCLQYVEFPLTFGAGTKLELK
# B3: 405B8H3 (LAG-3 mouse-human chimeric antibody) (antibody, V domains shown)
# VH: QVQLQQSGAELVRPGASVTLSCKASGYTFTDYEMHWVKQTPVHGLEWIGATDPETGNSAYNQKFKGKAIMTADKSSSTAYMELRSLTSEDSAVYYCISTGWNDWGQGTSLTVSS
# VL: B2 VL with S40P, N52D, V55L, E81G, V92D, L96Y, A100G, L106I
# notes: also called mouse-human chimeric antibody 405B8H3
# B4: 409D4E10 (LAG-3 mouse-human chimeric antibody) (antibody, V domains shown)
# VH: B3 VH with Y27N, G56D, S58T, M70L, A72T, S98T, T99S
# VL: B2 VL with S40P, V55L, V92N, L96Y, A100G, L106I
# B5: 409B11E12 (LAG-3 mouse-human chimeric antibody) (antibody, V domains shown)
# VH: B3 VH with P41T, G56S, N57Y, M70L, S98A
# VL: B2 VL with I2L, S40P, V55L, V92D, L96Y, A100G, L106I
# B6: 405B8H3 (mouse antibody purified from hybridoma) (antibody, V domains shown)
# VH: B3 VH
# VL: B2 VL with S40P, N52D, V55L, E81G, V92D, L96Y, A100G, L106I
# notes: also called mAb103-405B8H3; 405B81-13
# B7: 105F1E10 (mouse antibody purified from hybridoma) (antibody, V domains shown)
# VH: B2 VH
# VL: B2 VL
# notes: also called mAb009-105F1E10
# B8: 409D4E10 (mouse antibody purified from hybridoma) (antibody, V domains shown)
# VH: B3 VH with Y27N, G56D, S58T, M70L, A72T, S98T, T99S
# VL: B2 VL with S40P, V55L, V92N, L96Y, A100G, L106I
# notes: also called mAb112-409D4E10
# B9: 409B11E12 (mouse antibody purified from hybridoma) (antibody, V domains shown)
# VH: B3 VH with P41T, G56S, N57Y, M70L, S98A
# VL: B2 VL with I2L, S40P, V55L, V92D, L96Y, A100G, L106I
# notes: also called mAb104-409B11E12
# Target: T1, human LAG-3 protein with hFc tag (hLAG-3-hFc protein) (human, UniProt P18627 23-450)
# T1 construct: also called immunogen 1; LAG-3 extracellular domain protein; not shown: human IgG Fc fragment (hFc) of the pCpC vector
# T1 sequence: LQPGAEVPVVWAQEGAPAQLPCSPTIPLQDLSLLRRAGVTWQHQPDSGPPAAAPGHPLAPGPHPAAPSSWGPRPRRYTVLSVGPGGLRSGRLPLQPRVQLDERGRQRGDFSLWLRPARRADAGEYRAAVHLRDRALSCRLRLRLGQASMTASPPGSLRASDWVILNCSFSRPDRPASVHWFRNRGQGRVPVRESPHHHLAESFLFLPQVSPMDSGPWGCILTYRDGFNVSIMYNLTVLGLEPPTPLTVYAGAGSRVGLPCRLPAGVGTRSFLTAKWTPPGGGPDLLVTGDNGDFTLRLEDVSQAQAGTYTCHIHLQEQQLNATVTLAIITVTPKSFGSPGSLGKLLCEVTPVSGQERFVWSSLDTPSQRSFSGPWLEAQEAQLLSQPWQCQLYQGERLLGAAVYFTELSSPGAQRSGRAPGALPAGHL
# Assay: ELISA, hLAG-3-hFc coated; 0.0000 nM
# Procedure: (§1) The plate was sealed with plastic film and incubated overnight at 4° C. The plate was washed 2 times with the plate washing solution (PBS+0.01% Tween20) on the next day, and added with the blocking solution (PBS+0.01% Tween20+1% BSA) and blocked at room temperature for 1-2 hours. The blocking solution was poured out, and the plate was added with 50-100 μl of the antibody sample to be tested to each well, incubated at 37° C. for 1-2 hours, and washed 2-3 times with a plate washing solution (PBS+0.01% Tween20). HRP (horseradish peroxidase) labeled secondary antibody was added, and the plate was incubated at 37° C. for 1-2 hours, and washed 2-3 times with a plate washing solution (PBS+0.01% Tween20). 100 μl of TMB substrate was added to each well. After incubated at room temperature for 15-30 minutes, the plate was added with 100 μl of stop solution (1.0N HCl) to each well.
row,Binder,OD450 [OD450]
1,B1,0.12
2,B2,0.11
3,B3,0.12
4,B4,0.14
5,B5,0.13

# Target: T2, hFc tagged monkey LAG-3 protein (cLAG-3-hFc protein) (monkey; human)
# T2 construct: Made in HEK293 cells; also called monkey LAG-3 extracellular domain protein; not shown: human IgG Fc fragment (hFc) of the pCpC vector
# T2 chain: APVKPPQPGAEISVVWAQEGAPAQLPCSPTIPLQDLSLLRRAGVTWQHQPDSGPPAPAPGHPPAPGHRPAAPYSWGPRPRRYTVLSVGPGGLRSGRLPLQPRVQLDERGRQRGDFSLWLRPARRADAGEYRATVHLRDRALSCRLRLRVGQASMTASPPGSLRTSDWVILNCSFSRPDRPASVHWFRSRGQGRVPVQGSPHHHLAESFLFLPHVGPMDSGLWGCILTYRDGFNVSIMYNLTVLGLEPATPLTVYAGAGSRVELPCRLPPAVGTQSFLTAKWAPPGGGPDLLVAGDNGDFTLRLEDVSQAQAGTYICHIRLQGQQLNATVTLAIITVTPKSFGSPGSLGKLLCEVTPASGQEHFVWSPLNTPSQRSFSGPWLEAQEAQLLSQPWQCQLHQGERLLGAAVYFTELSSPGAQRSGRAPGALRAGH
# Assay: ELISA, cLAG-3-hFc coated; 0.0007 nM
# Procedure: as §1
row,Binder,OD450 [OD450]
1,B1,0.21
2,B2,0.16
3,B3,0.21
4,B4,0.27
5,B5,0.17

# Target: T3, PAAPSSWGPRPRK-Biotin (human)
# T3 construct: Overlapping peptide of the outer loop of human LAG-3; also called LAG-3 Extra cyclic peptide
# T3 peptide: PAAPSSWGPRPRK-{Biotin′}
# Assay: peptide scanning ELISA, biotin peptide on streptavidin
# Procedure: (§2) Fifteen overlapping peptides including the full length of the outer loop sequence were prepared and biotin was coupled to each C-terminus. Enzyme-linked immunosorbent assay (ELISA) was used to detect the binding of antibodies to these peptides. Streptavidin (sigma, Cat #M5432) was diluted with PBS to a final concentration of 1.0 μg/ml, and then added as 100 μl per well to a 96-well ELISA plate. The plate was sealed with plastic film and incubated overnight at 4° C. The plate was washed 2 times with the plate washing solution (PBS+0.01% Tween20) on the next day, and added with the blocking solution (PBS+0.01% Tween20+1% BSA) and blocked at room temperature for 1-2 hours. The blocking solution was poured off, and biotinylated peptides was added to a final concentration of 1 ug/ml, as 100 ul per well to the 96-well ELISA plate, incubated at 37° C. for 1-2 hours, then washed with plate washing solution (PBS+0.01% Tween20)2-3 times. Then the antibody samples to be tested were incubated as 100 μl per well at 37° C. for 1-2 hours, and then the plate was washed 2-3 times with a plate washing solution (PBS+0.01% Tween20). HRP (horseradish peroxidase) labeled secondary antibody was added, and the plate was incubated at 37° C. for 1-2 hours, and washed 2-3 times with a plate washing solution (PBS+0.01% Tween20). 100 μl of TMB substrate was added to each well. After incubated at room temperature for 15-30 minutes, the plate was added with 100 μl of stop solution (1.0N HCl) to each well.
row,Binder,binding result
1,B6,binds
2,B7,binds
3,B8,binds
4,B9,binds

# Target: T4, AAPSSWGPRPRRK-Biotin (human)
# T4 construct: Overlapping peptide of the outer loop of human LAG-3; also called LAG-3 Extra cyclic peptide
# T4 peptide: AAPSSWGPRPRRK-{Biotin′}
# Assay: as above
# Procedure: as §2
row,Binder,binding result
1,B6,binds
2,B7,binds
3,B8,binds
4,B9,binds

# Target: T5, APSSWGPRPRRYK-Biotin (human)
# T5 construct: Overlapping peptide of the outer loop of human LAG-3; also called LAG-3 Extra cyclic peptide
# T5 peptide: APSSWGPRPRRYK-{Biotin′}
# Assay: as above
# Procedure: as §2
row,Binder,binding result
1,B6,binds
2,B7,binds
3,B8,binds
4,B9,binds

# Target: T6, PSSWGPRPRRYTK-Biotin (human)
# T6 construct: Overlapping peptide of the outer loop of human LAG-3; also called LAG-3 Extra cyclic peptide
# T6 peptide: PSSWGPRPRRYTK-{Biotin′}
# Assay: as above
# Procedure: as §2
row,Binder,binding result
1,B6,binds
2,B7,binds
3,B8,binds
4,B9,binds

# Target: T7, SSWGPRPRRYTVK-Biotin (human)
# T7 construct: Overlapping peptide of the outer loop of human LAG-3; also called LAG-3 Extra cyclic peptide
# T7 peptide: SSWGPRPRRYTVK-{Biotin′}
# Assay: as above
# Procedure: as §2
row,Binder,binding result
1,B6,binds
2,B7,binds
3,B8,binds
4,B9,binds

# Target: T8, SWGPRPRRYTVLK-Biotin (human)
# T8 construct: Overlapping peptide of the outer loop of human LAG-3; also called LAG-3 Extra cyclic peptide
# T8 peptide: SWGPRPRRYTVLK-{Biotin′}
# Assay: as above
# Procedure: as §2
row,Binder,binding result
1,B6,binds
2,B7,binds
3,B8,binds
4,B9,binds

# Target: T9, WGPRPRRYTVLSK-Biotin (human)
# T9 construct: Overlapping peptide of the outer loop of human LAG-3; also called LAG-3 Extra cyclic peptide
# T9 peptide: WGPRPRRYTVLSK-{Biotin′}
# Assay: as above
# Procedure: as §2
row,Binder,binding result
1,B6,binds
2,B7,binds
3,B8,binds
4,B9,binds

# Target: T10, GPPAAAPGHPLAPGPHPAAPSSWGPRPRRYK-biotin (full length of the outer loop) (human, biotin coupled to the C-terminus (K-biotin))
# T10 construct: Printed over two rows (r36 and r37; again r54 and r55); also called LAG-3 Extra cyclic peptide
# T10 peptide: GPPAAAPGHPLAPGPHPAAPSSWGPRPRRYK
# Assay: as above
# Procedure: as §2
row,Binder,binding result
1,B6,binds
2,B7,binds
3,B8,binds
4,B9,binds
